Data published in patent publication US20060009381A1 (I P RANDYWYCK B V, published 2006).

Biological target: the molecule itself
Assay: FRET by flow cytometry, mixtures of Annexin A5-FITC and Annexin A5-Alexa568 on PtdSer-coated paramagnetic beads
Procedure: Formation of two-dimensional lattices on the phospholipids surfaces was assessed FRET (fluorescence resonance energy transfer) analysis. Paramagnetic beads (1-4 μm in diameter) that were coated with a phospholipids bilayer containing PtdSer were incubated with mixtures of Annexin A5-FITC and Annexin A5-Alexa568 or mixtures of M23-FITC and M23-Alexa568. Fluorescence intensity of the beads was then measured by flow cytometry (Coulter Epics XL-MLC™) using an excitation of 488 nm and emission ranges of 515-530 nm (F11) and >600 nm (F13).

B1: Annexin A5 (other)
chain: AQVLRGTVTDFPGFDERADAETLRKAMKGLGTDEESILTLLTSRSNAQRQEISAAFKTLFGRDLLDDLKSELTGKFEKLIVALMKPSRLYDAYELKHALKGAGTNEKVLTEIIASRTPEELRAIKQVYEEEYGSSLEDDVVGDTSGYYQRMLVVLLQANRDPDAGIDEAQVEQDAQALFQAGELKWGTDEEKFITIFGTRSVSHLRKVFDKYMTISGFQIEETIDRETSGNLEQLLLAVVKSIRSIPAYLAETLYYAMKGAGTDDHTLIRVMVSRSEIDLFNIRKEFRKNFATSLYSMIKGDTSGDYKKALLLLCGEDD
modifications: FITC or Alexa568-succinimidylester coupled to amines (positions not stated)
notes: The FRET assay used mixtures of Annexin A5-FITC and Annexin A5-Alexa568 on paramagnetic beads coated with a PtdSer bilayer; also called Annexin A5-FITC; Annexin A5-Alexa568
Does B1 bind?
Result: binds
